# doi:10.1101/2021.03.12.434960
# T1: full-length human KIF5B, C-terminal mScarlet-StrepII (human), P33176
# T1 chain: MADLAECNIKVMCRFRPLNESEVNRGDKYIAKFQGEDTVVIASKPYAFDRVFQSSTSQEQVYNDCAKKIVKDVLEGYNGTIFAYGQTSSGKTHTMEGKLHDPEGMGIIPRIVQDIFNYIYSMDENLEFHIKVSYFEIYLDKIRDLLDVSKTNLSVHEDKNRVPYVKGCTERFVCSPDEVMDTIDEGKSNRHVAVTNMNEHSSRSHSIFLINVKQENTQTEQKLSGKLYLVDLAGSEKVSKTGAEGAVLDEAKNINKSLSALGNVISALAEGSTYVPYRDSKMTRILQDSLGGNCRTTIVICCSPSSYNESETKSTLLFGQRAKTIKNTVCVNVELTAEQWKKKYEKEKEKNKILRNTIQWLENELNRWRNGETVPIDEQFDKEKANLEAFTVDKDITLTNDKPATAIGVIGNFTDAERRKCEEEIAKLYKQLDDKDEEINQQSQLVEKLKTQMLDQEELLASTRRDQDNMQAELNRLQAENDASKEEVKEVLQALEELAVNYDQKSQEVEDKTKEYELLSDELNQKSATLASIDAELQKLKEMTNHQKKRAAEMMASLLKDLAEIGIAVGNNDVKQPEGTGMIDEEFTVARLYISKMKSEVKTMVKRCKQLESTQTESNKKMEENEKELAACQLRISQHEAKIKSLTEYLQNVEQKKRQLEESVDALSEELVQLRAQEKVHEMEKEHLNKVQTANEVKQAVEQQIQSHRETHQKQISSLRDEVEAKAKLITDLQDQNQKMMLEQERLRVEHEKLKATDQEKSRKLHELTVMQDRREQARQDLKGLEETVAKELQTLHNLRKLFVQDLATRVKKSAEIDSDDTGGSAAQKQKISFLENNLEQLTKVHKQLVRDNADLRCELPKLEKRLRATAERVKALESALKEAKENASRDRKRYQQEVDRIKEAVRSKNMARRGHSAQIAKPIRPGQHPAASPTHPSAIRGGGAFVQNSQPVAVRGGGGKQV
# T2: full-length human KIF5A, C-terminal mScarlet-StrepII (human), Q12840
# T2 chain: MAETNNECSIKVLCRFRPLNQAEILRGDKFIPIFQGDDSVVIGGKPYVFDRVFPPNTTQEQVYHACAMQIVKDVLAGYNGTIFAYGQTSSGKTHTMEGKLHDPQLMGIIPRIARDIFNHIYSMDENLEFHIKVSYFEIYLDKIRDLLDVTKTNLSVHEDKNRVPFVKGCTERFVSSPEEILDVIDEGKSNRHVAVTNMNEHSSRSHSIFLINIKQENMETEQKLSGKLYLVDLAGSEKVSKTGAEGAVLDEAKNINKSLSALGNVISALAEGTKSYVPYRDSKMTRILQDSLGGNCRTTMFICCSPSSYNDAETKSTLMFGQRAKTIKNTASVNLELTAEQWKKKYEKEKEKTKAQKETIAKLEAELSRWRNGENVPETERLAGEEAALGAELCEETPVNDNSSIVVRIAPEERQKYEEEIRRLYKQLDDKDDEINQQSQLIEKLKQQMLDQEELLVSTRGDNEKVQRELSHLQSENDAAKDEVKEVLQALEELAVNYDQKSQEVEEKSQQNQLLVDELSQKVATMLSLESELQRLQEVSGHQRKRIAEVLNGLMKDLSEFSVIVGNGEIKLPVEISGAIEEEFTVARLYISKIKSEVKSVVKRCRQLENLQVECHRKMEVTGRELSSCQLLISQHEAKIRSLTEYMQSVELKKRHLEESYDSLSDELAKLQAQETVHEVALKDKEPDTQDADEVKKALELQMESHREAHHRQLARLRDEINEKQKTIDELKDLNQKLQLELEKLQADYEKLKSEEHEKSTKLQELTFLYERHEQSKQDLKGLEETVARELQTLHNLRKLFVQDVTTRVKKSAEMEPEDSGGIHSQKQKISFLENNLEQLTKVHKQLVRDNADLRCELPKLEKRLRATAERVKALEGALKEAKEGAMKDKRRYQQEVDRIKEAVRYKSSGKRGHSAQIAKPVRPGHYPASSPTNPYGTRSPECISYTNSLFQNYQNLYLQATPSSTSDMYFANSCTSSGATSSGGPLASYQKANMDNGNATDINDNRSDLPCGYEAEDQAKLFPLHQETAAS
# B1: full-length human KIF5B, C-terminal mScarlet-StrepII, P33176 1-963 (natural protein)
# chain: T1 chain
# B2: full-length human KIF5A, C-terminal mScarlet-StrepII, Q12840 1-1032 (natural protein)
# chain: T2 chain
# How the values were obtained:
# [1] = biological target: T1, full-length human KIF5B, C-terminal …; assay: SEC-MALS; conditions: remark: other sources report otherwise
# [2] = biological target: T2, full-length human KIF5A, C-terminal …; assay: SEC-MALS; conditions: remark: other sources report otherwise
Binder,stoichiometry N [1],stoichiometry N [2]
B1,2,
B2,,2
